Measured values as given in PMC4150764, “Structural and functional basis of transcriptional regulation by TetR family protein CprB from S. coelicolor A3(2)” (Nucleic Acids Research, 2014).

Experiments:
CprB [1] = target: T1, CprB (Streptomyces coelicolor A3(2), UniProt Q7AKF2 1-215); test: EMSA; EMSA: 10 mM Tris-HCl pH 7.8, 50 mM KCl, 1 mM EDTA, 1 mM DTT, 5% glycerol, hemoglobin, poly(dI-dC), 20 C, ~1 nM DNA; ITC: 50 mM phosphate pH 7, 150 mM NaCl, 25 C; conditions: protein: recombinant, chain copies: 4, blunt
T1 sequence: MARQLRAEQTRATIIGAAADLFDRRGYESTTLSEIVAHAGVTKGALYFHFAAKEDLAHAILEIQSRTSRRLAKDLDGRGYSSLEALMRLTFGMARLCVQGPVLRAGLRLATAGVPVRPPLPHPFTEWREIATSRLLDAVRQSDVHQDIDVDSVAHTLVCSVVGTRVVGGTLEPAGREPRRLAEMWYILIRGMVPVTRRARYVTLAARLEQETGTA

CprB [2] = target: T1, CprB; test: ITC; two-site model, Kd1, n = 0.26, 25 C; EMSA: 10 mM Tris-HCl pH 7.8, 50 mM KCl, 1 mM EDTA, 1 mM DTT, 5% glycerol, hemoglobin, poly(dI-dC), 20 C, ~1 nM DNA; ITC: 50 mM phosphate pH 7, 150 mM NaCl, 25 C; conditions: protein: recombinant; chain copies: 4; label: 5'-32P (EMSA); none (ITC); blunt
CprB S33A = target: T2, CprB S33A (Streptomyces coelicolor A3(2), UniProt Q7AKF2 1-215, S33A); test: EMSA; negligible effect; EMSA: 10 mM Tris-HCl pH 7.8, 50 mM KCl, 1 mM EDTA, 1 mM DTT, 5% glycerol, hemoglobin, poly(dI-dC), 20 C, ~1 nM DNA; ITC: 50 mM phosphate pH 7, 150 mM NaCl, 25 C; conditions: protein: recombinant; chain copies: 2; label: 5'-32P (EMSA); none (ITC); blunt
T2 sequence: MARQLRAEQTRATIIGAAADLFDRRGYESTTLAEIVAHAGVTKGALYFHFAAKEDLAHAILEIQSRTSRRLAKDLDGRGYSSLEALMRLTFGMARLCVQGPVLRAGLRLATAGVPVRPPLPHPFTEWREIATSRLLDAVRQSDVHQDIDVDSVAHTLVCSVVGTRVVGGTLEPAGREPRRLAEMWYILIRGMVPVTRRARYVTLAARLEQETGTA

CprB K43A = target: T3, CprB K43A (Streptomyces coelicolor A3(2), UniProt Q7AKF2 1-215, K43A); test: as above; conditions: protein: recombinant; chain copies: 2; label: 5'-32P (EMSA); none (ITC); blunt
T3 sequence: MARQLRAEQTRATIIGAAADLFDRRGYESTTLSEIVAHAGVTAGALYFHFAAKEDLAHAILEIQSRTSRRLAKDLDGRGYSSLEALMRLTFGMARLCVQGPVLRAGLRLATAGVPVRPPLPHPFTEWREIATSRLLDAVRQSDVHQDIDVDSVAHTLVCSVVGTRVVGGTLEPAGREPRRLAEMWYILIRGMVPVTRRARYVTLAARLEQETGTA

CprB [3] = target: T1, CprB; test: EMSA; range given for scbR, kasOA, kasOB together; EMSA: 10 mM Tris-HCl pH 7.8, 50 mM KCl, 1 mM EDTA, 1 mM DTT, 5% glycerol, hemoglobin, poly(dI-dC), 20 C, ~1 nM DNA; ITC: 50 mM phosphate pH 7, 150 mM NaCl, 25 C; conditions: protein: recombinant; chain copies: 4; label: 5'-32P; blunt
CprB [4] = target: T1, CprB; test: EMSA; about five-fold weaker than own upstream sequence; EMSA: 10 mM Tris-HCl pH 7.8, 50 mM KCl, 1 mM EDTA, 1 mM DTT, 5% glycerol, hemoglobin, poly(dI-dC), 20 C, ~1 nM DNA; ITC: 50 mM phosphate pH 7, 150 mM NaCl, 25 C; conditions: protein: recombinant; chain copies: 4; label: 5'-32P; blunt, self-complementary
CprB [5] = target: T1, CprB; test: EMSA; similar trend to OPB; EMSA: 10 mM Tris-HCl pH 7.8, 50 mM KCl, 1 mM EDTA, 1 mM DTT, 5% glycerol, hemoglobin, poly(dI-dC), 20 C, ~1 nM DNA; ITC: 50 mM phosphate pH 7, 150 mM NaCl, 25 C; conditions: protein: recombinant; chain copies: 4; label: 5'-32P; blunt
[6] = target: the molecule itself; test: crystal structure; CprB (6 mg/ml) co-crystallised with annealed 22-mer CS DNA, 1:1.2 (dimer of CprB:CS), hanging drop, 22°C, 0.2 M KCl, 0.02 M MgCl2, 0.05 M Tris-HCl pH 7.5, 10% PEG 4000; 3.25 Å
CprB [7] = target: T1, CprB; test: ITC; n = 0.52 CS per CprB dimer, 25 C; EMSA: 10 mM Tris-HCl pH 7.8, 50 mM KCl, 1 mM EDTA, 1 mM DTT, 5% glycerol, hemoglobin, poly(dI-dC), 20 C, ~1 nM DNA; ITC: 50 mM phosphate pH 7, 150 mM NaCl, 25 C; conditions: protein: recombinant; chain copies: 4; label: 5'-32P (EMSA); none (ITC, crystal); blunt

B1: OPB 27-mer (-47 to -21 of cprB-ATG) (dsDNA)
DNA 1: AGGCAGGCGGCACGGTCTGTTGAGTTC
DNA 2: GAACTCAACAGACCGTGCCGCCTGCCT
Kd (CprB [1]; label: 5'-32P (EMSA), none (ITC)): ~274 nM | Kd (CprB [2]): 330 nM | binding result (CprB S33A): binds | binding result (CprB K43A): binds

B2: scbR (dsDNA)
DNA 1: GGAACCGGCAATGCGGTTTGTTCGATC
DNA 2: GATCGAACAAACCGCATTGCCGGTTCC
Kd (CprB [3]): ~1060 nM

B3: kasOA (dsDNA)
DNA 1: ACAAACCGGTGTGCTGGTTTGTAAAGTCGTGG
DNA 2: CCACGACTTTACAAACCAGCACACCGGTTTGT
Kd (CprB [3]): ~1060 nM

B4: kasOB (dsDNA)
DNA 1: CAAAACAGACTTGTTAGCTGTTT
DNA 2: AAACAGCTAACAAGTCTGTTTTG
Kd (CprB [3]): ~1060 nM

B5: QacR(OS) 28-mer (dsDNA)
DNA 1: CTTATAGACCGATCGATCGGTCTATAAG
DNA 2: CTTATAGACCGATCGATCGGTCTATAAG
Kd (CprB [4]): ~1500 nM

B6: cprB1 59-mer (-58 to 0 of cprB-ATG) (dsDNA)
DNA 1: GCCGGGGGTAAAGGCAGGCGGCACGGTCTGTTGAGTTCCAGCCCGGGAGAATCCAGCCG
DNA 2: CGGCTGGATTCTCCCGGGCTGGAACTCAACAGACCGTGCCGCCTGCCTTTACCCCCGGC
Kd (CprB [1]; label: 5'-32P): ~400 nM

B7: cprA upstream 25-mer (-44 to -20 of cprA-ATG) (dsDNA)
DNA 1: AACAGGCACACGGTCTGTTGGTTCT
DNA 2: AGAACCAACAGACCGTGTGCCTGTT
binding result (CprB [5]): binds

B8: TetR(OS) 15-mer (dsDNA)
DNA 1: TCTATCATTGATAGG
DNA 2: CCTATCAATGATAGA
binding result (CprB [1]; label: 5'-32P): no binding

B9: CprB (coelicolor pigment regulator protein B) from S. coelicolor A3(2) (natural protein, UniProt O66122 1-215, looked up)
chain: MARQLRAEQTRATIIGAAADLFDRRGYESTTLSEIVAHAGVTKGALYFHFAAKEDLAHAILEIQSRTSRRLAKDLDGRGYSSLEALMRLTFGMARLCVQGPVLRAGLRLATAGVPVRPPLPHPFTEWREIATSRLLDAVRQSDVHQDIDVDSVAHTLVCSVVGTRVVGGTLEPAGREPRRLAEMWYILIRGMVPVTRRARYVTLAARLEQETGTA
modifications: intermonomer disulfide linkage between cysteine residues at position 159
notes: CprB, TetR family gamma-butyrolactone receptor, Streptomyces coelicolor A3(2); the cprB gene encodes a 215 amino acid protein, expressed from pET26b(+); Crystallised with the 22-mer consensus DNA (CS); two homodimers in each asymmetric unit; No tag is mentioned; purification was by cation exchange; also called native CprB; source: E. coli BL21(DE3)pLysS, purified (SP Sepharose)
stoichiometry N [6]: 2

B10: CS 22-mer (dsDNA)
DNA 1: ACATACGGGACGCCCCGTTTAT
DNA 2: ATAAACGGGGCGTCCCGTATGT
Kd (CprB [7]): 200 nM | Kd (CprB [1]; label: 5'-32P (EMSA), none (ITC, crystal)): ~374 nM
